How the values were obtained:
[1] = molecular target: T1, Flp(Y343F) (S. cerevisiae (2-micron plasmid)) (UniProt P03870)
T1 sequence: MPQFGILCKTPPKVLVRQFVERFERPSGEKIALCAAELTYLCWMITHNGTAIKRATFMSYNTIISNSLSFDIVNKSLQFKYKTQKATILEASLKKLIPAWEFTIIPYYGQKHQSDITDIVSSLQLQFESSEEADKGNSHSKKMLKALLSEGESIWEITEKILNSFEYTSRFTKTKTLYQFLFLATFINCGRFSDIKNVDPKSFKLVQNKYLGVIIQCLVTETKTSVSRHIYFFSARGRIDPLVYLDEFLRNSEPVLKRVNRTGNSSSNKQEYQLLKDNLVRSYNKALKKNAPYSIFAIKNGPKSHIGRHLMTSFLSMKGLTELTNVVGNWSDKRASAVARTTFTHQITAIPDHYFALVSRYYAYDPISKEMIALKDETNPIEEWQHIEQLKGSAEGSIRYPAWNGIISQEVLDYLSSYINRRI

[2] = molecular target: Flp(Y343F)-SUMO (S. cerevisiae (2-micron plasmid) | not stated) (UniProt P03870)

- strand cleavage complementation on separately pre-bound half-sites; cleavage yield against that of Flp(R191A) with Flp(Y343F) [1]: 1.5 fold
- strand cleavage complementation on separately pre-bound half-sites; cleavage yield against that of Flp(R191A)-SUMO with Flp(Y343F)-SUMO [1]: 1.5 fold
- strand cleavage complementation on separately pre-bound half-sites; cleavage yield against that of Flp(R191A) with Flp(Y343F)-SUMO [2]: 1.6 fold
Substance: Flp(R191A)-SUMO (from UniProt P03870 1-423; Q12306 1-96) (enzyme)

Reference: article PMC6594588
